The values below come from paper PMC12501149.

What is called Kd is the constant that tells how readily two partners part at equilibrium. As usually defined, the koff is the first-order rate constant of dissociation. Higher therefore signals fast dissociation. As usually defined, the kon is a measure of how fast the partners come together. A lower kon goes with slower complex formation.

The target of the assay is biotinylated RBD of TcsL (Paeniclostridium sordellii) (UniProt Q46342). In words: SPR. (In general: SPR reads the build-up and loss of mass on a sensor chip optically.)
Chain of biotinylated RBD of TcsL (Paeniclostridium sordellii) (Q46342 whole entry): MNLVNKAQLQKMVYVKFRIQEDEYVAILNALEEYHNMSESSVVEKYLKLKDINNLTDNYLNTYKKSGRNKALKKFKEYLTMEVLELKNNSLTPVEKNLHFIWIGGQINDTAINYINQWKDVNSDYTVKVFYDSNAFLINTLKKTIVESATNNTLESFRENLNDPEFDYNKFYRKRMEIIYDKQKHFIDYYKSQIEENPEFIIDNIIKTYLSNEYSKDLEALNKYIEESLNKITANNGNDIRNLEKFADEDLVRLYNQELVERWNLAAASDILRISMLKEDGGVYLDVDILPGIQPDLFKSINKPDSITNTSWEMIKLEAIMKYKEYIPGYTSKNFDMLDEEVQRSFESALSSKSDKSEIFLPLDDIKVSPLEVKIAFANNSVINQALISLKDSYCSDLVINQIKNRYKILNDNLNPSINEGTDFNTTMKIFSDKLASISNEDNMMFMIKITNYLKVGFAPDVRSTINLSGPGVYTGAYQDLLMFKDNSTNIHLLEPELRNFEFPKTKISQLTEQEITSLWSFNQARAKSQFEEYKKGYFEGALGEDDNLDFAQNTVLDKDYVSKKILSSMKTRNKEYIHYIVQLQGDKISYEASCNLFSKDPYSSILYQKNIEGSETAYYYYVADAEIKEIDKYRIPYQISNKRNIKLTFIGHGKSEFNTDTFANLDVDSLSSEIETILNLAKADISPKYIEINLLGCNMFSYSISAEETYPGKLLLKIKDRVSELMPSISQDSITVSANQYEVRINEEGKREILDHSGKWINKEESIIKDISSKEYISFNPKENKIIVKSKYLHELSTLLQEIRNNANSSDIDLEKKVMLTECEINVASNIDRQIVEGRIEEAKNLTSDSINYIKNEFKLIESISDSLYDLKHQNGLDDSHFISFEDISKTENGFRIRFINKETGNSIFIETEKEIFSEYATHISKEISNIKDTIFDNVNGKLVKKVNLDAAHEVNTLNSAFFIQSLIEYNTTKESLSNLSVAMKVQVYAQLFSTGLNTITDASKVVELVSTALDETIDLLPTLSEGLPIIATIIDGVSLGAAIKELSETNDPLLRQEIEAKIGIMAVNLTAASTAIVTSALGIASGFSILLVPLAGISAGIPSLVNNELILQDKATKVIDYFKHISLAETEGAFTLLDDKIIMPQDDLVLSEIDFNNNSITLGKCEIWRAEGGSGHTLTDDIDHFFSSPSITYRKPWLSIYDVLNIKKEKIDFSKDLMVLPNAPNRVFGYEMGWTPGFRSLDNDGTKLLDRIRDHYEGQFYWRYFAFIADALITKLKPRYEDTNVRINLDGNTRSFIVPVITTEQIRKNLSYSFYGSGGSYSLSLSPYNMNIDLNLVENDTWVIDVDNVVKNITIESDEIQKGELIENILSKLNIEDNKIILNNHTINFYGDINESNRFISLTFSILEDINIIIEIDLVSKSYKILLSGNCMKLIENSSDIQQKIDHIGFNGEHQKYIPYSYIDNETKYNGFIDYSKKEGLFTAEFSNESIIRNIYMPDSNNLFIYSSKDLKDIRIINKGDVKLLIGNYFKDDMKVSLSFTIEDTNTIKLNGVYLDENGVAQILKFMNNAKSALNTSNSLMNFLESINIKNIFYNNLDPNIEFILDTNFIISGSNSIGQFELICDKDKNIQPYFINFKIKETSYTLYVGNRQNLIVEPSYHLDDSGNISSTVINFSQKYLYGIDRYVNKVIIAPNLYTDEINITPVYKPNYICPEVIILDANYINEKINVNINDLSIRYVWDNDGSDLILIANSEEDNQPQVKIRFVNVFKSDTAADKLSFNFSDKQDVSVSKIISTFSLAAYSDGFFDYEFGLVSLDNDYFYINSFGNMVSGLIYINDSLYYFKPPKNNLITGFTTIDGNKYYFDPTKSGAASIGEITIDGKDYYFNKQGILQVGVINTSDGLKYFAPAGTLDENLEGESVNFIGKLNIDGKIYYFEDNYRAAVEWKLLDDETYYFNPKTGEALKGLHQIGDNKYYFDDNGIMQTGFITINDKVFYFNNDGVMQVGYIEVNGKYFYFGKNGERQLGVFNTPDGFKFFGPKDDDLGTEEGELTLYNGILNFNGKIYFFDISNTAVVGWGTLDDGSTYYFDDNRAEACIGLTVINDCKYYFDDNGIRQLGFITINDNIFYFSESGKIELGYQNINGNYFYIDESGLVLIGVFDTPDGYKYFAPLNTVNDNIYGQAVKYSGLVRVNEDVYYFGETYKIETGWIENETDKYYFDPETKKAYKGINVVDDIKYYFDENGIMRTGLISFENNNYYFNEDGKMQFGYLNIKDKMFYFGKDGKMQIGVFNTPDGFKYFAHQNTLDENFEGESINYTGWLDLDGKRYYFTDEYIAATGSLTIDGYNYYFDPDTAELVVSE

B1: B10 (designed binder)
chain: NEEIIKEIKQLLKEGKKASEIIELLKKNGYEEIAKDAELAALKSKDMRKAAAETAIKKLE
For B1, the equilibrium dissociation constant (Kd) was found to be 0.0183 nM, the off-rate constant (koff) was found to be 0.000125 s⁻¹ and the kon stood at 6.86e+06 M⁻¹ s⁻¹.
